{"source": "patent US20140134170A1", "about": "“USE OF INHIBITORS OF EGFR-FAMILY RECEPTORS IN THE TREATMENT OF HORMONE REFRACTORY BREAST CANCERS” (MERRIMACK PHARMACEUTICALS, INC., priority 2011, published 2014)", "molecules": {"B1": {"name": "MM-121: fully human anti-ErbB3 monoclonal antibody; VH and VL SEQ ID NOs: 1 and 2; heavy and light chains SEQ ID NOs 42 and 43 (antibody, listed as Homo sapiens)", "heavy": "EVQLLESGGGLVQPGGSLRLSCAASGFTFSHYVMAWVRQAPGKGLEWVSSISSSGGWTLYADSVKGRFTISRDNSKNTLYLQMNSLRAEDTAVYYCTRGLKMATIFDYWGQGTLVTVSSASTKGPSVFPLAPCSRSTSESTAALGCLVKDYFPEPVTVSWNSGALTSGVHTFPAVLQSSGLYSLSSVVTVPSSNFGTQTYTCNVDHKPSNTKVDKTVERKCCVECPPCPAPPVAGPSVFLFPPKPKDTLMISRTPEVTCVVVDVSHEDPEVQFNWYVDGVEVHNAKTKPREEQFNSTFRVVSVLTVVHQDWLNGKEYKCKVSNKGLPAPIEKTISKTKGQPREPQVYTLPPSREEMTKNQVSLTCLVKGFYPSDIAVEWESNGQPENNYKTTPPMLDSDGSFFLYSKLTVDKSRWQQGNVFSCSVMHEALHNHYTQKSLSLSPGK", "light": "QSALTQPASVSGSPGQSITISCTGTSSDVGSYNVVSWYQQHPGKAPKLIIYEVSQRPSGVSNRFSGSKSGNTASLTISGLQTEDEADYYCCSYAGSSIFVIFGGGTKVTVLGQPKAAPSVTLFPPSSEELQANKATLVCLVSDFYPGAVTVAWKADGSPVKVGVETTKPSKQSNNKYAASSYLSLTPEQWKSHRSYSCRVTHEGSTVEKTVAPAECS"}}, "key": {"[1]": {"system": "MCF-7CA tumors", "experiment": "Letrozole-resistant MCF-7CA intratumoral aromatase xenograft model", "assay_type": "in vivo, mice", "conditions": "for tumor growth during initial treatment: MM-121 600 μg Q3D i.p., letrozole 10 μg/mouse/day, treatment from the start; for tumor volume after acquired letrozole resistance: letrozole-resistant tumors re-grouped at about 14 weeks, followed to 19 weeks", "description": "To investigate the mechanism of AI resistance, a xenograft model was developed that corresponds to ER+ postmenopausal breast cancer. Tumors for this intratumoral aromatase xenograft model are grown from MCF7 human breast adenocarcinoma cells that have been stably transfected with a human placental aromatase gene to provide a non-ovarian source of estrogen production in ovariectomized athymic mice (MCF-7CA, see e.g. Brodie et al., Clinical Cancer Research 884s Vol. 11, 884s-888s, Jan. 15, 2005 (Suppl.)). Sufficient estrogen is produced (from aromatization of injected androstenedione) by the MCF7-CA cells to stimulate their proliferation and tumor formation. This is a model of a postmenopausal breast cancer patient with tumors that express aromatase and are free of gonadotropin feedback regulation.\nMCF-7CA cells were cultured in Eagle's minimum essential medium containing 5% fetal bovine serum and neomycin. The culture medium was changed twice weekly. Subconfluent MCF-7CA cells were scraped into Hank's solution and centrifuged at 1,000 rpm for 2 min at 4° C. The cells were then resuspended in Matrigel™ (10 mg/ml) to make a cell suspension of 2-5×10^7 cells/ml. Ovariectomized female BALB/c athymic mice 4-6 weeks of age (20-22 g body weight) were housed in a pathogen-free environment under controlled conditions of light and humidity and received food and water ad libitum. Each mouse was inoculated subcutaneously (s.c.) with 0.1 ml of the cell suspension. Animals were then injected s.c. daily with 0.1 mg androstenedione/mouse. Growth rates were determined by measuring the tumors with calipers weekly. Tumor volumes were calculated according to the formula for a sphere (4/3 r12. r 2). When tumors reached a measurable size, mice were divided into groups of 10 animals with equivalent tumor volumes (300 mm^3). Mice were treated with 0.1 ml compounds in 0.3% hydroxypropylcellulose (HPC) for 6 weeks.\nTumors were measured weekly and tumor volume was calculated. Mice were sacrificed if tumors continued to grow to volumes of greater than about 1400-1700 mm^3."}, "[2]": {"biological_target": "T1, ErbB3 (pErbB3) (Homo sapiens, UniProt P21860)", "T1 construct": "endogenous in cells; host or cells: MCF7", "experiment": "Western blot for phosphorylated ErbB3 in ligand-stimulated MCF7 cells", "assay_type": "cell-based", "conditions": "for phosphorylation of ErbB3 in stimulated cells: MCF7 cells without MM-121, stimulated 30 minutes, betacellulin relative to heregulin", "method": "(§1) FIG. 1 comprises images of western blots of a gel of lysates from untreated control cells (“C”), cells pretreated with (“MM121”) or without pretreatment with MM-121 that were stimulated with heregulin beta 1 (“HRG”), betacellulin (“BTC”), or estrogen (“E2”).\n(§2) MCF7 cells are either untreated or pretreated with MM-121 (250 nM) for 1 hour. Cells are then stimulated with heregulin betal (EGF domain, 10 nM R&D systems), betacellulin (20 nM, R&D systems) or estrogen (beta estradiol—100 nM, Sigma) for 30 minutes, or left unstimulated. Lysates of the cells are analyzed by western blot probed for pER and for pErbB3.\n(§3) Cells were either untreated or pretreated with MM-121. Untreated and pretreated cells were stimulated with heregulin, betacellulin, or estrogen. Cell lysates were analyzed by western blot for phosphorylated forms of ErbB3 and estrogen receptor."}, "[3]": {"system": "estrogen receptor alpha (pER, ser 167 and ser 118)", "experiment": "Western blot/densitometry for phosphorylated estrogen receptor in ligand-stimulated MCF7 cells", "assay_type": "cell-based, human", "conditions": "for phosphorylation of the estrogen receptor in stimulated cells: MCF7 cells without MM-121, stimulated 30 minutes, betacellulin relative to heregulin", "source_text": "as §1\nFIG. 2 is a graph showing densitometry results from the relevant (pER) band in each of the control (“Con.”), heregulin (“HRG”), betacellulin (“BTC”), heregulin plus MM-121 (“HRG+MM121”) and betacellulin plus MM-121 (“BTC+MM121”) lanes in FIG. 1. Band density was normalized to GAPDH density and the normalized density (Y-axis) is shown for control and stimulated cells (both with and without MM-121 pretreatment) as indicated on the X-axis. The arrowhead between the HRG and BTC lanes indicates the pER band in the HRG lane.\nas §2, §3"}, "[4]": {"system": "TAMR-1, TAMR-7, or TAMR-8 cells (tamoxifen-resistant human mammary carcinoma xenografts)", "experiment": "Tamoxifen-resistant MCF7 variant xenografts, MM-121 monotherapy", "assay_type": "in vivo", "conditions": "600 μg per mouse IP every three days; TAMR xenografts in nude mice", "method": "Analyses of the anti-tumor efficacy and tolerability of MM-121 treatment of ER+ hormone refractory mammary tumor-bearing mice are carried out using xenografts of tamoxifen-resistant variants of MCF7 human mammary carcinoma cells. Tamoxifen-resistant human mammary carcinoma cell lines TAMR-1, TAMR-7, and TAMR-8 cells are obtained from the laboratory of A. E. Lykkesfeldt (Department of Tumor Endocrinology, Division for Cancer Biology, Danish Cancer Society. Strandboulevarden 49, DK-2100 Copenhagen 0, Denmark). These are grown as xenografts in female athymic nu+/nu+ nude mice obtained from Charles River Laboratories International. […]\nTo investigate anti-tumor efficacy in monotherapy, MM-121 or vehicle control (100 μL) is given to tumor-bearing mice (i.e., after 14 days of tumor growth following injection of cells) at 600 μg per mouse (MM-121 as a 6 mg/mL solution in PBS) by IP injection every three days. […] Efficacy is determined by comparing tumor growth between the antibody-treated mice and the vehicle control mice and is expressed as the experimental to control ratio of median relative tumor volumes (T/C value). […]\nMice are randomized and therapy begins when a sufficient number of individual tumors have grown to a volume of approximately 200 mm^3. Tumors are measured (L x W) by digital caliper measurement and the tumor volume is calculated using the formula π/6 (W^2×L). […]"}}}
{"molecule": "N#Cc1ccc(C(c2ccc(C#N)cc2)n2cncn2)cc1", "note": "[letrozole]", "values": [{"measurement": "tumor growth during initial treatment", "setting": "[1]", "value": "progressed more slowly"}, {"measurement": "time to letrozole resistance (tumor volume increased to 600 mm^3)", "setting": "[1]; daily letrozole 10 μg/mouse/day", "value": "about 14 weeks"}, {"measurement": "tumor volume after acquired letrozole resistance", "setting": "[1]", "value": "continued to increase in volume over time"}]}
{"molecule": "betacellulin: betacellulin (R&D systems), EGF-like stimulating ligand", "values": [{"measurement": "phosphorylation of ErbB3 in stimulated cells", "setting": "[2]", "value": "to a lesser extent (about ⅔ less)"}, {"measurement": "phosphorylation of the estrogen receptor in stimulated cells", "setting": "[3]", "value": "to a lesser extent (about ⅔ less)"}]}
{"molecule": "heregulin: heregulin beta 1 (EGF domain, R&D systems), stimulating ligand", "values": [{"measurement": "phosphorylation of ErbB3 in stimulated cells", "setting": "[2]", "value": "exhibited phosphorylation of both the estrogen receptor and ErbB3"}, {"measurement": "phosphorylation of the estrogen receptor in stimulated cells", "setting": "[3]", "value": "exhibited phosphorylation of both the estrogen receptor and ErbB3"}, {"measurement": "level of ER phosphorylation relative to estrogen stimulation", "setting": "[3]; MCF7 cells, heregulin 10 nM vs beta estradiol 100 nM, 30 minutes", "value": "at least four-fold"}]}
{"molecule": "B1", "values": [{"measurement": "tumor growth", "setting": "[4]", "value": "inhibits or stops tumor growth, and in some cases reduces tumor size"}, {"measurement": "tumor growth during initial treatment", "setting": "[1]", "value": "grew rapidly over the course of 5 weeks"}, {"measurement": "tumor volume after acquired letrozole resistance", "setting": "[1]", "value": "continued to increase in volume over time"}, {"measurement": "reduction in the amount of pErbB3", "setting": "[2]; MCF7 cells pretreated with MM-121 250 nM for 1 hour, heregulin 10 nM for 30 minutes", "value": "about ⅔"}, {"measurement": "reduction in the amount of pER", "setting": "[3]; MCF7 cells pretreated with MM-121 250 nM for 1 hour, heregulin 10 nM for 30 minutes, densitometry normalized to GAPDH", "value": "about ⅔"}]}
